As usually defined, the kon is a measure of how fast the partners come together.

Assay [1] has as its target T1, recombinant secretory human HB-EGF manufactured by R & D System (catalogue number 259-HE/CF) (human, UniProt Q99075 63-148, biotin-labeled with EZ-Link Sulfo-NHS-Biotin in the EGFR binding inhibition assay only).
T1 construct: Bought protein; also called recombinant human HB-EGF; secretory HB-EGF
The experiment in a line: Biacore T-100, HB-EGF immobilized on CM5 chip, antibody as analyte. As to the method: In order to analyze binding activities of a mouse antibody KM3566 and the chimeric antibody KM3966 for human HB-EGF in reaction kinetics, the binding activity measurement was carried out using Biacore. All of the following operations were carried out using Biacore T-100 (manufactured by Biacore). Human HB-EGF (manufactured by R & D) prepared into 5 μg/ml using HBS-EP Buffer (manufactured by Biacore) was immobilized onto a CM 5 sensor chip (manufactured by Biacore) to a level of 80 RU (resonance unit) by an amine coupling method. Thereafter, each antibody diluted 5-fold from 9 nmol/l was let flow on the chip at a rate of 10 μl/min, and by analyzing the sensor-gram at each concentration, the association rate constant and dissociation rate constant of each antibody for human HB-EGF were calculated.
It was confirmed based on the results that both antibodies almost the same binding activity for human HB-EGF.
For orientation: Surface plasmon resonance follows binding to a sensor surface in real time, without labels.

Assay [2] addresses bovine serum albumin (BSA) (bovine, UniProt P02769 25-607). Nature of the assay: binding ELISA. A general note: ELISA stands for enzyme-linked immunosorbent assay.
The target of assay [3] is T2, mutant HB-EGF in which serine at position 147 from the N-terminal was substituted with threonine (human, UniProt Q99075 63-148).
T2 construct: Transiently expressed on mouse LMTK cells; also called S147T
T2 chain: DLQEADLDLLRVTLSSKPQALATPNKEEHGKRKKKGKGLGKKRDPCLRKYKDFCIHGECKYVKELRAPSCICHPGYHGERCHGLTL
The experiment in a line: cell ELISA, biotin-labeled antibody on mutant HB-EGF gene-transferred LMTK cells, corrected for expression with H-6. As to the method: Firstly, biotin-labeled anti-HB-EGF antibody (KM3566, KM3579 or KM3966) diluted to 2 μg/ml with a binding buffer (prepared by adding nonessential amino acids, 20 mM HEPES-NaOH (pH 7.2) and 10% fetal bovine serum to Ham's F12) was allowed to react at 4° C. for 2 hours with 1×10⁵ cells of the mutant HB-EGF gene-transferred cell, human/mouse chimeric HB-EGF gene-transferred cell or mock. After the reaction, the cells were washed twice with an ice-cooled washing buffer (prepared by adding 0.5 mM CaCl₂, 0.5 mM MgCl₂ and 0.1% fetal bovine serum to PBS) and then once with PBS(+) (prepared by adding 0.5 mM CaCl₂ and 0.5 mM MgCl₂ to PBS). A formaldehyde solution diluted to 1.8% with PBS(+) was added to the washed cells, and the cells were fixed at 4° C. for 20 minutes. […] By carrying out development of color using a peroxidase detection kit (ELISA POD Substrate OPD Kit, manufactured by Nacalai Tesque), the absorbance at 492 nm was measured and the activity of cell-bonded HRP was measured.
A value obtained by subtracting the absorbance for mock from the absorbance for each of the various mutant HB-EGF gene-transferred cells or human/mouse chimeric HB-EGF gene-transferred cells of the anti-HB-EGF antibody was used as the value A. […]

Chain of bovine serum albumin (BSA) (P02769 25-607 limits assumed): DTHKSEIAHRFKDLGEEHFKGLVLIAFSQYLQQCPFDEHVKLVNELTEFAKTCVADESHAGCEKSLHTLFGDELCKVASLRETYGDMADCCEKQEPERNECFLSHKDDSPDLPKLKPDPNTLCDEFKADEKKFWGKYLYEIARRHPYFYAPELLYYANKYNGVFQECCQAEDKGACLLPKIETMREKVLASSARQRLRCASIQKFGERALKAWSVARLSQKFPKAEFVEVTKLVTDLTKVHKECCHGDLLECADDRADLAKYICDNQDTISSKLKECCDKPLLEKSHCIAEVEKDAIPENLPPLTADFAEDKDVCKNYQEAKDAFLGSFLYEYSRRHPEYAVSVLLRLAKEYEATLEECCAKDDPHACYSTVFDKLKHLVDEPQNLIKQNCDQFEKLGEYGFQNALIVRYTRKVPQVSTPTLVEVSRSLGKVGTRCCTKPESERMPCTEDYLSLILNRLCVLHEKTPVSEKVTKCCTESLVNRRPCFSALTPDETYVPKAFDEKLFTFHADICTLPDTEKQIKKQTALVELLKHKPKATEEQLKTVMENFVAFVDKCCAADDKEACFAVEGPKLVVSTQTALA

B1: anti-HB-EGF monoclonal antibody KM3566 (antibody, V domains shown)
VH: QVQLQQSGTELARPGASVKLSCKASGYTFRTYGITWVKQRTGQGLEWIGEIFPGSGNTYYNEKFKGKASLTADKSSSTAYMQLSSLTSEDSAVYFCARESFSDGYYGYFDYWGQGTTLTVSS
VL: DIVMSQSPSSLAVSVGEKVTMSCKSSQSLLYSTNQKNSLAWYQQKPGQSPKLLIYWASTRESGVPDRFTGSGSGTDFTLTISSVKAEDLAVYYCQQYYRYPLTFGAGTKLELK
notes: also called anti-HB-EGF mouse antibody KM3566; monoclonal antibody produced by hybridoma KM3566 (FERM BP-10490)
On to B1, for which the kon in assay [1] amounted to 270000 M⁻¹ s⁻¹. The binding result in assay [2] is “no binding”.

B2: anti-HB-EGF chimeric antibody KM3966 (antibody, V domains shown)
VH: QVQLQQSGTELARPGASVKLSCKASGYTFRTYGITWVKQRTGQGLEWIGEIFPGSGNTYYNEKFKGKASLTADKSSSTAYMQLSSLTSEDSAVYFCARESFSDGYYGYFDYWGQGTTLTVSS
VL: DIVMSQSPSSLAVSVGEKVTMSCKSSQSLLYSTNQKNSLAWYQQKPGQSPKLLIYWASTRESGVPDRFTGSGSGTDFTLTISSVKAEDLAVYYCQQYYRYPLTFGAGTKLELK
notes: also called human chimeric antibody KM3966; anti-HB-EGF monoclonal antibody KM3966
For B2, in assay [3], the “relative binding activity (ratio to pRTHGC-6)” value is ~0.33 fraction of binding to pRTHGC-6. Also, the kon in assay [1] is 240000 M⁻¹ s⁻¹.

For the origin of these results see patent publication US20110052595A1 (Kyowa Kirin, published 2011).
